Source: PMC10110466 (Nature biotechnology, 2022)

Biological target: T1, soluble human IL-2Rβγ complex (human, UniProt P31785 23-262; P14784 27-240, biotin)
T1 sequence (looked up) 1: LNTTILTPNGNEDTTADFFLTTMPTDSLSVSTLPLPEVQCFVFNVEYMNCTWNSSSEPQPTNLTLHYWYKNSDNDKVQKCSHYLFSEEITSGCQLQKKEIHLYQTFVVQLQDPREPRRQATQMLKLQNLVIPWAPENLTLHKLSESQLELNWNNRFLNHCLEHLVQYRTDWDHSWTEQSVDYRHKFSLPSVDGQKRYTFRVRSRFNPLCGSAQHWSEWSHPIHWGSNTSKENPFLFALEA
T1 sequence (looked up) 2: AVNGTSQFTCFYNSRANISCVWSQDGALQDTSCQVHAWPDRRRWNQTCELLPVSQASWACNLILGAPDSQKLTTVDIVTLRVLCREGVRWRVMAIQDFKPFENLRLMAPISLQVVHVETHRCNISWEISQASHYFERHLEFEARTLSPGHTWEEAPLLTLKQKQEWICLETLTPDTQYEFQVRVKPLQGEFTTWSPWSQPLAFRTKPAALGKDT
Assay: cell-based or functional assay

PKKKIQLHAEHALYDALMILNIVKTNS [Neo2A]
STAT5 phosphorylation in YT-1 human NK cells, EC50: > 40 µM
